Experimental findings from US20210388081A1 (Memorial Sloan Kettering, published 2021) are described below.

Experiment [1] concerns the target T1, Fc Receptor-like 5 (FcRL5), full length, overexpressed on 3T3 or Raji cells (human, UniProt Q96RD9 16-977).
T1 construct: also called 3T3-FcRL5
T1 sequence: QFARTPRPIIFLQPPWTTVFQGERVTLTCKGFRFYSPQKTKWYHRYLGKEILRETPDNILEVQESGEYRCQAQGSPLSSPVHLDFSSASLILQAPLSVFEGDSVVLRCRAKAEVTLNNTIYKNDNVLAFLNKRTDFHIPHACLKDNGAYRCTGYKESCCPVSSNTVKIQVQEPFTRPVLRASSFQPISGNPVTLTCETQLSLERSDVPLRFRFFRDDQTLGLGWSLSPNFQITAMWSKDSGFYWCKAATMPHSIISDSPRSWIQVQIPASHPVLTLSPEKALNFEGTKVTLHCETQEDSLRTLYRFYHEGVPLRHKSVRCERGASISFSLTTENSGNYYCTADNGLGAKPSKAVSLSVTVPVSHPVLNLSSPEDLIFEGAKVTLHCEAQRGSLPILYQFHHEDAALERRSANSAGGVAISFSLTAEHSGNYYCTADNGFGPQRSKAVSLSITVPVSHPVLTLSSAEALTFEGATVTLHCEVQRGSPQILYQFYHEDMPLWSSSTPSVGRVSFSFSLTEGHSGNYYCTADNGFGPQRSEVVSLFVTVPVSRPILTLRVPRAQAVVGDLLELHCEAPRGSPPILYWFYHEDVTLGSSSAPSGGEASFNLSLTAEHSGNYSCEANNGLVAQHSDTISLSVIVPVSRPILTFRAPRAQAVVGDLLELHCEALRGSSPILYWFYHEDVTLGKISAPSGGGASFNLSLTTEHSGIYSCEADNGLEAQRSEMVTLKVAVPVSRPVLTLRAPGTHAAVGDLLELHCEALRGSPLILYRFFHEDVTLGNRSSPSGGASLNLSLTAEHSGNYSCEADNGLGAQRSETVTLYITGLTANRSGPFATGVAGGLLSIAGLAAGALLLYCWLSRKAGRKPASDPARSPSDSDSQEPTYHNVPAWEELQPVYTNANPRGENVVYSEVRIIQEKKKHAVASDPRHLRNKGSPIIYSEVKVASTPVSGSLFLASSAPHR
Put plainly: phage clone screening on cells. As to the method:
Once selected, positive scFv clones are further tested for their binding to FcRL5 (e.g., human FcRL5) on live 3T3 cell surfaces by flow cytometry. Briefly, phage clones are incubated with 3T3 cells over-expressing FcRL5. The cells are washed and then incubated with a mouse anti-M13 coat protein mAb. Cells are washed again and labeled with a PE-horse anti-mouse Ig prior to flow cytometry.
Phage′ display against FcRL5 was performed to enrich for scFv phage clones that bind to FcRL5 specifically. Screening was carried out on FcRL5 overexpressing 3T3 cells or 3T3 cells expressing FcRL1, 2, 3, 4 or 6 as a negative control (FIG. 2).

Experiment [2] has as its target T2, FcRL1, overexpressed on 3T3 cells (UniProt Q96LA6 17-429, limits assumed).
T2 construct: whole, on cells
T2 sequence (looked up): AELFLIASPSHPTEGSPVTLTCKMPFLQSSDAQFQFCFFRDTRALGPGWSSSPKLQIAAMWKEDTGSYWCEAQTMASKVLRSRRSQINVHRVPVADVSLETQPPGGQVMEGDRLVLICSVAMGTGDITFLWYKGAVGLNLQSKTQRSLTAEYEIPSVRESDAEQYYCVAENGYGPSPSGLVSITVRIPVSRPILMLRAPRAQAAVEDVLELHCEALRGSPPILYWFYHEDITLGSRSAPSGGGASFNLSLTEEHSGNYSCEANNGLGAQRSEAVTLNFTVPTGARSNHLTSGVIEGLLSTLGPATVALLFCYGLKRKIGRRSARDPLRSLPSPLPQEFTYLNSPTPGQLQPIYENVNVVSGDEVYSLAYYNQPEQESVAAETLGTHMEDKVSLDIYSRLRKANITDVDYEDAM
Put plainly: phage clone on 3T3-FcRL1 cells.

The target of another experiment is SLAMF9 protein (UniProt Q96A28 19-236, limits assumed). The experiment in a line: phage clone on SLAMF9 protein.
Chain of SLAMF9 protein (Q96A28 19-236 limits assumed): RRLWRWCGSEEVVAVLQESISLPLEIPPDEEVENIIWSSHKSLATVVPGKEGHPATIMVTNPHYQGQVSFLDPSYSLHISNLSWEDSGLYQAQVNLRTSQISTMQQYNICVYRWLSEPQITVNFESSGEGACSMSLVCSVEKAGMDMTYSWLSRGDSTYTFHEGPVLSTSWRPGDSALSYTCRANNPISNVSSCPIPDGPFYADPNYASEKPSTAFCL
Experiment [3] has as its target T3, FcRL3, overexpressed on 3T3 cells (UniProt Q96P31 18-734, limits assumed).
T3 construct: whole, on cells
T3 sequence (looked up): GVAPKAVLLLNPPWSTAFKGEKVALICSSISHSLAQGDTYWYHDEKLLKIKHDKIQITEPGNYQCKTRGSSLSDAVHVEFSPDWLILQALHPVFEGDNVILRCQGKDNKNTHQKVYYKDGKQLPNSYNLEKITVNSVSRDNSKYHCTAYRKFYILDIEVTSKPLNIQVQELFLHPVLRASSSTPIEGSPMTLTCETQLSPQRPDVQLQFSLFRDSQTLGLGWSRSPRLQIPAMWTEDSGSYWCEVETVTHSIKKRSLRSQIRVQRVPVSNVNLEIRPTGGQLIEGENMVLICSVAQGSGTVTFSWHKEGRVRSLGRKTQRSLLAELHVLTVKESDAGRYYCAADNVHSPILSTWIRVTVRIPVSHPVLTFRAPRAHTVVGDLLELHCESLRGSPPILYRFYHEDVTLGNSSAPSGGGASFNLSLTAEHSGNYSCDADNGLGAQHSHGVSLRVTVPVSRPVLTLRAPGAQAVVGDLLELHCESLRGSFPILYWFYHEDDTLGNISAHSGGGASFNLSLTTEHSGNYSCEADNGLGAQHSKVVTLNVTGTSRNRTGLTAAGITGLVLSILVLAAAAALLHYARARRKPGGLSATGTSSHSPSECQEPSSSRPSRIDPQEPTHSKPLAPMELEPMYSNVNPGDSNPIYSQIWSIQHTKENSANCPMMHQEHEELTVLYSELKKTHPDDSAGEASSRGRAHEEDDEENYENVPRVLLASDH
The experiment in a line: phage clone on 3T3-FcRL3 cells.

The target in experiment [4] is T4, FcRL2, overexpressed on 3T3 cells (UniProt Q96LA5 20-508, limits assumed).
T4 construct: whole, on cells
T4 sequence (looked up): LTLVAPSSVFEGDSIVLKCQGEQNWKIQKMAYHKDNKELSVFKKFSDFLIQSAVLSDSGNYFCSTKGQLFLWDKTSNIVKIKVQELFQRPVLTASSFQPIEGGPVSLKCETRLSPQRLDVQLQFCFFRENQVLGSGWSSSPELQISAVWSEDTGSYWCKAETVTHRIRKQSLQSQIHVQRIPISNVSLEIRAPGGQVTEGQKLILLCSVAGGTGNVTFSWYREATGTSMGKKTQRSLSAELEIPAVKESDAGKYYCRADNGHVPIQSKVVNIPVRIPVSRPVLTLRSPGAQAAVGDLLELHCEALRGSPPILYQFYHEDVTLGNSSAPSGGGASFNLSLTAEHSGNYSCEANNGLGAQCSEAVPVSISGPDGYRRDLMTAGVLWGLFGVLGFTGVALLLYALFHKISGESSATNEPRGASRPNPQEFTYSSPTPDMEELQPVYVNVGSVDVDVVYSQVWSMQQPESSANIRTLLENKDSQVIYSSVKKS
The experiment in a line: phage clone on 3T3-FcRL2 cells.

B1: ET200-028 (scFv)
scFv: QSVLTQPPAASGTPGQRVTISCSGGVSNIGSGALNWYQQLPGTAPKLLIYSYNQRPSGVSDRFSGSRSATSASLAISGLQSEDEADYYCATWDDSVNGWVFGGGTKLTVLGSRGGGGSGGGGSGGGGSLEMAQVQLVQSGAEVKKPGDSVKVSCKPSGYNFLNYGINWVRQAPGQGLEWMGWISTYTGNTNYAQKLQGRVTFTTDTSTSTAYMEMRSLRSDDTAVYYCARDLYYYEGVDYWGQGTLVTVSSTSGQAGQHHHHHHGAYPYDVPDYAS
notes: screened as phage clone; entry is VL-linker-VH-His tag-HA tag
For B1, the binding result in experiment [1] is “binds”; in experiment [2] it was “no binding”; with SLAMF9 protein it was “no binding”; in experiment [3] it was “no binding”; in experiment [4], “no binding”.

B2: ET200-030 (scFv)
scFv: QSVVTQPPSVSGAPGQRVTISCTGSSSNIGAGYDVNWYQQFPGTAPKLLIYGNSNRPSGVPDRFSGSKSGTSASLAITGLQAEDEADYYCQSYDSSLSGSYVFGTGTKVTVLGSRGGGGSGGGGSGGGGSLEMAQMQLVQSGAEVKKPGASVKVSCKASGYTLTELSMHWVRQAPGKGLEWMGGFDPEDGETIYAQKFQGRVTMTEDTSTDTAYMELSSLRSEDTAVYYCARMSSMYYDWGQGTLVTVSSTSGQAGQHHHHHHGAYPYDVPDYAS
notes: as for B1
Consider B2, for which the binding result in experiment [1] is recorded as “binds”; in experiment [2] it was “no binding”; in the experiment with SLAMF9 protein, “no binding”; in experiment [3], “no binding”; in experiment [4], “no binding”.

B3: ET200-002 (scFv)
scFv: NFMLTQPHSVSESPGKTVTISCTRSSGSIASNYVQWYQQRPGSAPTTVIYEDNQRPSGVPDRFSGSIDSSSNSASLTISGLKTEDEADYYCQSYDSSNSVVFGGGTKLTVLGSRGGGGSGGGGSGGGGSLEMAQVQLVQSGTEVKKPGASVRVACKASGYPFNKYDINWVRQAPGQGLEWMGGIIPIFRTTNYAQKFQGRVTITADESTSTAYMELSSLRSEDTAVYYCAREWFYWDIWGQGTLVTVSSTSGQAGQHHHHHHGAYPYDVPDYAS
notes: as for B1
Turning to B3, the binding result was “binds” in experiment [1]; “no binding” in experiment [2]; “no binding” with SLAMF9 protein; “no binding” in experiment [3]; “no binding” in experiment [4].

B4: ET200-027 (scFv)
scFv: QSVLTQPPSVSGAPGQGVTIPCTGSSSNIGAGYDVHWYQQLPGTAPKLLIYGNNNRPSGVPDRFSGSRSGSSASLAITGLQAEDEADYYCQSYDSSLSDVVFGGGTKVTVLGSRGGGGSGGGGSGGGGSLEMAEVQLVQSGAEVKKPGATVKISCKVSGYTFTDYYMHWVQQAPGKGLEWMGLVDPEDGETIYAEKFQGRVTITADTSTDTAYMELSSLRSEDTAVYYCARYWSYSFDYLYMPEGNDWWGQGTLVTVSSTSGQAGQHHHHHHGAYPYDVPDYAS
notes: as for B1
For B4, the binding result was “binds” in experiment [1]; “no binding” in experiment [2]; “no binding” with SLAMF9 protein; “no binding” in experiment [3]; “no binding” in experiment [4].

B5: ET200-029 (scFv)
scFv: QAVLTQPPSVSVAPGKTARVTCGGNNIGSESVHWYQQKPGQAPVLVIYYDTDRPSGIPERFSGSHSGTTATLTISRVEAGDEADYYCQVWDSSRDHVVFGGGTKLTVLGSRGGGGSGGGGSGGGGSLEMAQVQLVQSGGGVVQPGRSLRLSCAASGFTFSSYAMHWVRQAPGKGLEWVAVISYDGSNKYYADSVKGLFTISRDNSKNTLYLQMNSLRAEDTAVYYCARSYFTSGFYDYWGQGTLVTVSSTSGQAGQHHHHHHGAYPYDVPDYAS
notes: as for B1
Take B5: the binding result in experiment [1] is given as “binds”; in experiment [2], “no binding”; in the experiment with SLAMF9 protein it was “no binding”; in experiment [3] it was “no binding”; in experiment [4], “no binding”.

B6: ET200-026 (scFv)
scFv: NFMLTQPHSVSESPGKTVTISCTGSSGSIASNYVQWYQQRPGSAPTTVIYEDNQRPSGVPDRFSGSIDSSSNSASLTISGLKTEDEADYYCQSYDSSNWVFGGGTKLTVLGSRGGGGSGGGGSGGGGSLEMAEVQLVQSGAEVKKPGSSVKVSCKASGGTFSSYAISWVRQAPGQGLEWMGGIIPIFGTANYAQKFQGRVTITADESTSTAYMELSSLRSEDTAVYYCARNNHYYNDYWGQGTLVTVSSTSGQAGQHHHHHHGAYPYDVPDYAS
notes: as for B1
Regarding B6, the binding result in experiment [1] is listed as “binds”; in experiment [2] it was “no binding”; in the experiment with SLAMF9 protein it was “no binding”; in experiment [3], “no binding”; in experiment [4], “no binding”.

B7: ET200-035 (scFv)
scFv: NFMLTQPHSVSESPGKTVTISCTRSSGSIASNYVQWYQQRPGSAPTTVIYEDNQRPSGVPDRFSGSIDSSSNSASLTISGLKTEDEADYYCQSYDSTNWVFGGGTKLTVLGSRGGGGSGGGGSGGGGSLEMAQVQLVQSGAEVKKPGSSVKVSCKASGGTFSSYAISWVRQAPGQGLEWMGGIIPIFGTANYAQKFQGRVTITADESTSTAYMELSSLRSEDTAVYYCARYNYYFNDYWGQGTLVTVSSTSGQAGQHHHHHHGAYPYDVPDYAS
notes: as for B1
Regarding B7, the binding result in experiment [1] was “binds”; in experiment [2], “no binding”; with SLAMF9 protein, “no binding”; in experiment [3] it was “no binding”; in experiment [4] it was “no binding”.
